Data: paper PMC5709234 (Journal of the American Society for Mass Spectrometry, 2017)
“And” between values parts separate entries of the source, which are not always exact repeats. Equal values may be shown once. Read-outs that look alike come from different tables or passages of the source.

B1: Enolase 1 (S. cerevisiae) (enzyme, UniProt P00924 2-437, looked up)
chain: AVSKVYARSVYDSRGNPTVEVELTTEKGVFRSIVPSGASTGVHEALEMRDGDKSKWMGKGVLHAVKNVNDVIAPAFVKANIDVKDQKAVDDFLISLDGTANKSKLGANAILGVSLAASRAAAAEKNVPLYKHLADLSKSKTSPYVLPVPFLNVLNGGSHAGGALALQEFMIAPTGAKTFAEALRIGSEVYHNLKSLTKKRYGASAGNVGDEGGVAPNIQTAEEALDLIVDAIKAAGHDGKVKIGLDCASSEFFKDGKYDLDFKNPNSDKSKWLTGPQLADLYHSLMKRYPIVSIEDPFAEDDWEAWSHFFKTAGIQIVADDLTVTNPKRIATAIEKKAADALLLKVNQIGTLSESIKAAQDSFAAGWGVMVSHRSGETEDTFIADLVVGLRTGQIKTGAPARSERLAKLNQLLRIEEELGDNAVFAGENFHHGDKL
B2: Pyruvate kinase type III (Oryctolagus caniculus) (enzyme)
chain: not shown

How the values were obtained:
[1] = molecular target: the molecule itself; test: native MS
[2] = molecular target: the molecule itself; test: native MS; remark: listed apart in the source

Protein	stoichiometry N [1]	stoichiometry N [2]
B1	2	–
B2	–	2 and 4
